Laboratory results taken from PMC3366955.

Experiments:
[1] = SEC-MALS
[2] = target: recombinant 42 kDa processed form of the P. falciparum merozoite surface protein 1, FVO allele (MSP1_(42)-FVO) (Plasmodium falciparum); experiment: SEC-MALS

Substance	percent of the total peak area as aggregate [1]	percent of the protein as dimers [2]	percent of the protein as multimers [2]	stoichiometry N [2]
recombinant 42 kDa processed form of the P. falciparum merozoite surface protein 1, FVO allele (MSP1_(42)-FVO)	approximately 1.7 MDa for 96% of the total peak area			
recombinant 42 kDa processed form of the P. falciparum merozoite surface protein 1, FVO allele (MSP1_(42)-FVO) (domain or fragment)		72%	28%	2
